In one experiment the target is T1, human CD3 antigen (human, UniProt P07766 23-126).
T1 construct: also called antigen CD3
Kind of experiment: ELISA, CD3 antigen coated on plate, anti-human IgG-peroxidase detection. A general note: An ELISA detects its analyte on a solid surface through an enzyme-linked reagent.

Experiment [1] concerns the target HER2 on tumor cell lines (SKBR-3, NCI-N87, MCF-7; 293F as HER2-negative control) (human, UniProt P04626 23-1255). The experiment in a line: cell-based or functional assay.

Numbering of substitutions follows the chain as printed.

What is called EC50 is the concentration needed to bring the measured effect to its halfway point.

T1 sequence (P07766 23-126): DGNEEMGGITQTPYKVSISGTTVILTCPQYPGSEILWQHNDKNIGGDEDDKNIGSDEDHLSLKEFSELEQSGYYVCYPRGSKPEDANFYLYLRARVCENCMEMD

B1: HER2-OB1×GXP2 bispecific antibody (bispecific antibody, human IgG1, kappa, L234A L235A)
heavy 1: not shown
heavy 2: EVQLVESGGGLVQPGGSLKLSCAASGFTFNTYAMNWVRQAPGKGLEWVARIRSKYNNYATYYADSVKDRFTISRDDSKNTAYLQMNNLKTEDTAMYYCVRHGNFGNSYVSWFAYWGQGTLVTVSSASTKGPSVFPLAPSSKSTSGGTAALGCLVKDYFPEPVTVSWNSGALTSGVHTFPAVLQSSGLYSLSSVVTVPSSSLGTQTYICNVNHKPSNTKVDKKVEPKSCDKTHTCPPCPAPEAAGGPSVFLFPPKPKDTLMISRTPEVTCVVVDVSHEDPEVKFNWYVDGVEVHNAKTKPREEQYNSTYRVVSVLTVLHQDWLNGKEYKCKVSNKALPAPIEKTISKAKGQPREPQVYTLPPSRDELTKNQVSLTCLVKGFYPSDIAVEWESNGQPENNYKTTKKKLDSDGSFFLYSKLTVDKSRWQQGNVFSCSVMHEALHNHYTQKSLSLSPGK
light: DIQMTQEPSLTTSPGGTVTLTCRSSTGAVTTSNYANWVQEKPGQAPRGLIGGTNKRAPGTPARFSGSLIGGKAALTITGVQPEDEAIYFCALWYSNLWVFGGGTKLEIKRTVAAPSVFIFPPSDEQLKSGTASVVCLLNNFYPREAKVQWKVDNALQSGNSQESVTEQDSKDSTYSLSSTLTLSKADYEKHKVYACEVTHQGLSSPVTKSFNRGEC
notes: also called HER2×GXP2; Her2×GXP2
For the molecule B1, the 50% effective concentration (EC50) in the experiment with human CD3 antigen was determined as 1.4 µg/mL. Besides, in experiment [1], the “EC50 of PBMC-mediated killing of NCI-N87 cells (LDH release)” value worked out at 0.000395 µg/mL and the “EC50 of PBMC-mediated killing of SKBR-3 cells (LDH release), fold lower than Herceptin” value is > 100 times lower than Herceptin.

B2: HER2-OB1×GXP bispecific antibody (bispecific antibody)
chain 1: not shown
chain 2: B1 heavy 2 with Q3K, V5L, G15K, K78Q, N79S, T80I, A81L
chain 3: QAVVTQESALTTSPGETVTLTCRSSTGAVTTSNYANWVQEKPDHLFTGLIGGTNKRAPGVPARFSGSLIGDKAALTITGAQTEDEAIYFCALWYSNLWVFGGGTKLVTMEIKRTVAAPSVFIFPPSDEQLKSGTASVVCLLNNFYPREAKVQWKVDNALQSGNSQESVTEQDSKDSTYSLSSTLTLSKADYEKHKVYTCEVTHQGLSSPVTKSFNRGEC
B2 registered an EC50 with human CD3 antigen of 3.15 µg/mL.
